Key:
[1] = molecular target: T1, recombinant human IL-6 receptor alpha (IL-6Rα) (human, UniProt P08887 20-365); test: SPR; human IL-6Rα immobilised on a CM5 chip; human CIRBP or TCC as analyte; details: both partners purified
T1 construct: Interleukin-6 receptor subunit alpha, human; UniProtKB P08887 is printed for the docking; also called rhIL-6Rα; rhIL-6R; source: recombinant
T1 sequence (looked up): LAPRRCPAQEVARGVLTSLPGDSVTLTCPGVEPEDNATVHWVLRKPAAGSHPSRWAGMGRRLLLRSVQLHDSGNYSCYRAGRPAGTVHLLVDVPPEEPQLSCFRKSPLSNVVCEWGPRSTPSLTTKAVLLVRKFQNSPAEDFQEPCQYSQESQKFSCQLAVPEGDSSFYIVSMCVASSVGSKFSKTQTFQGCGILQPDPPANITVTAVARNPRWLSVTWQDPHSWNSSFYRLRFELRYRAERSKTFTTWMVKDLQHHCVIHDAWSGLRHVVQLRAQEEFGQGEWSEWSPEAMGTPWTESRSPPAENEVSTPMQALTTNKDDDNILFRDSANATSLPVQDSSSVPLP

microglia = test: IL-6 release from CIRP-stimulated microglia, ELISA (TCC vs TC); assay type: cell-based, mouse; details: peptides 10 μM pre-treated 0.5 h, then rmCIRP 1 μg/mL 24 h, n = 3
Description: To validate the effects of TCC and TC in vitro, microglial cells were pre-treated with the peptides (10 μM) for 0.5 h, followed by stimulation with recombinant mouse CIRP (rmCIRP, 1 μg/mL) for 24 h to establish an inflammation model.
ELISA was used to quantify CIRP, MD2, IL-6, and TNF-α concentrations in blood and cerebrospinal fluid samples. Samples were processed and stored under standardized conditions to preserve protein integrity. Each target protein was measured using commercial ELISA kits, following the manufacturer’s instructions: Mouse CIRBP ELISA Kit (CSB-EL005440MO, CUSABIO), Mouse TNF-α ELISA Kit (EK282, Lianke Bio), Mouse IL-6 ELISA Kit (CSB-E04639m, CUSABIO), and Rat TNF-α ELISA Kit (EK382, Lianke Bio).
After disinfection with 75 % ethanol, the skin and skull were removed, and the brains were placed in ice-cold HBSS. The meninges were peeled off, the cortex was collected, and the hippocampus was discarded. Tissues were digested with 0.25 % trypsin at 37 °C for 12 min, centrifuged at 1200 rpm for 5 min, and resuspended in complete medium. The suspension was transferred to a T75 flask with 15 mL of complete medium. After 14 days, microglial cells were harvested by shaking the flask at 270–280 rpm for 30 min, and the supernatant was collected. […] CIRP (1 μg/mL for 24 h) was added to the microglia, which were divided into PBS, CIRP, and CIRP + TCC groups. […]

[2] = system: IL-6R-overexpressing HEK-293 T cells; test: IL-6R mRNA/protein expression in IL-6R-overexpressing HEK-293 T cells; assay type: cell-based, human; details: CIRP 1 μg/mL for 24 h
Description: The overexpression plasmid for IL-6R was constructed by GenScript Biotech using a pcDNA3.1(+)-3xFLAG-P2A-EGFP vector with a broad-spectrum promoter, non-fusion EGFP fluorescence, and Neo (G418) resistance. The final construct was pcDNA3.1(+)-IL6r-3xFLAG-P2A-EGFP, and a control plasmid (pcDNA3.1(+)-3xFLAG-P2A-EGFP) was also generated.
HEK 293 T cells were cultured in six-well plates to 70–80 % confluence. Cells were divided into control and test groups. For transfection, solution A (plasmid diluted in Opti-MEM) and solution B (Lipofectamine 2000, Life Technologies, USA, diluted in Opti-MEM) were mixed at a 1:2 plasmid-to-lipofectamine ratio. After 6 h, the medium was replaced with DMEM, and GFP fluorescence was observed 24–48 h post-transfection to assess efficiency. Cells were divided into PBS, IL-6R, and CIRP (1 μg/mL for 24 h) groups for further analysis.
RNA was extracted using TRIzol reagent (Invitrogen, 210901). RNA was reverse transcribed into cDNA using Novagen's R323-01 100RXN. qRT-PCR was performed to determine the mRNA levels of Nos2, Tnf, Rela, Mcr1, Arg1, Cirbp, […] and Il6. […]
Brain tissue adjacent to the hemorrhagic striatum was homogenized in lysis buffer with protease inhibitors. […] The supernatant was collected for protein quantification using the BCA method. […]

[3] = molecular target: T1, recombinant human IL-6 receptor alpha …; test: SPR; competitive inhibition: IL-6Rα on a CM5 chip saturated with TCC (100 times its affinity constant; 1.5 μg/mL), then CIRBP as analyte; details: both partners purified
STAT3 = STAT3 phosphorylation following CIRP and IL-6R interaction, western blot; assay type: cell-based; details: n = 6
Description: Cells were washed twice with PBS, lysed, and sonicated. After a 30-minute rest to ensure thorough lysis, the homogenate was centrifuged at 12,000 rpm at 4 °C for 15 min. The supernatant was collected for protein quantification using the BCA method. Samples were prepared at a concentration of 2 μg/μL, and 15 μL per well was loaded for gel electrophoresis. Proteins were transferred to membranes using a wet transfer method and blocked with 5 % non-fat milk. […] Membranes were incubated with primary antibodies overnight at 4 °C, followed by incubation with secondary antibodies (GAR-HRP, BIOSHARP; GAM-HRP, Jackson) at room temperature for 2 h. Membranes were washed three times with TBST and developed using a chemiluminescent substrate.

B1: recombinant human CIRP (cold-inducible RNA-binding protein) (natural protein, UniProt Q14011 1-172, looked up)
chain: MASDEGKLFVGGLSFDTNEQSLEQVFSKYGQISEVVVVKDRETQRSRGFGFVTFENIDDAKDAMMAMNGKSVDGRQIRVDQAGKSSDNRSRGYRGGSAGGRGFFRGGRGRGRGFSRGGGDRGYGGNRFESRSGGYGGSRDYYSSRSQSGGYSDRSSGGSYRDSYDSYATHNE
notes: UniProtKB Q14011 is printed for the docking; also called rhCIRP; human CIRBP; source: recombinant
Kd [1]: 4.27 nM
IL-6 release in culture supernatants (microglia): significantly increased IL-6 levels
Il6 mRNA expression ([2]; qRT-PCR n = 3–6): did not show a significant change between groups
Il6ra mRNA and protein expression ([2]; qRT-PCR n = 3–6, western blot n = 9): significant upregulation of Il6ra mRNA and protein expression
KD in the presence of the competitor TCC (1.5 μg/mL) [3]: 17.7 nM
phosphorylation of STAT3 (STAT3): induced phosphorylation of the STAT3
